Experimental data taken from patent US20220185898A1 (Alector, published 2022).

Experiments:
[1] = target: T1, human Sortilin expressed on 293 / HEK293T cells (human, UniProt Q99523 78-830); assay: FACS, 293 cells;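 also: antibodies at 10 µg/ml bound to cells for 1 h on ice, detected with PE-labelled anti-human secondary antibody by flow cytometry, reported as mean fluorescence intensity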
T1 construct: full-length recombinant human Sortilin; also called hSort; SORT1
Protocol: (§1) Cells were harvested, plated at 10⁵/ml in a 96 well plate, washed, and incubated in 100 μl PBS containing 10 μg/ml Mab and 2% FBS for 1 hour in ice. Cells were then washed twice and incubated in 100 μl PBS+2% FBS containing 5 μg/ml PE-conjugated anti-human secondary antibody for 30 minutes in ice. Cells were washed twice in cold PBS and data was acquired on a BD FACS Canto. Data analysis and calculation of MFI values was performed with FlowJo (TreeStar) software version 10.0.7.

[2] = target: T2, mouse Sortilin expressed on 293 / HEK293T cells (mouse, UniProt Q6PHU5 74-825); assay: FACS, 293 cells;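 also: antibodies at 10 µg/ml bound to cells for 1 h on ice, detected with PE-labelled anti-human secondary antibody by flow cytometry, reported as mean fluorescence intensity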
T2 construct: full-length recombinant mouse Sortilin; also called mSort; msSort
Protocol: as §1

[3] = target: T3, human Sortilin Fc fusion protein (human, UniProt Q99523 78-755); assay: ForteBio, avid;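 also: whole IgG captured on AHQ sensors, then contacted with Sortilin Fc fusion antigen at 100 nM, followed by an off-rate phase in buffer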
T3 construct: whole entry named; also called hSort-Fc
Protocol: (§2) The affinity for the Sortilin antibodies was determined by measuring their KD by ForteBio. […] Briefly, ForteBio affinity measurements were performed by loading IgGs on-line onto AHQ sensors. Sensors were equilibrated off-line in assay buffer for 30 min and then monitored on-line for 60 seconds for baseline establishment. For avid binding measurement, sensors with loaded IgGs were exposed to 100 nM antigen (human or mouse Sortilin Fc fusion) for 3, afterwards they were transferred to assay buffer for 3 min for off-rate measurement.
(§3) The binding affinity of each anti-Sortilin antibody was determined by measuring their KD by ForteBio or MSD-SET at room temperature. […] Briefly, ForteBio affinity measurements were performed by loading IgGs on-line onto AHQ sensors. Sensors were equilibrated off-line in assay buffer for 30 min and then monitored on-line for 60 seconds for baseline establishment. Sensors with loaded IgGs were exposed to 100 nM antigen for 5 minutes, then transferred to assay buffer for 5 min for off-rate measurement. Kinetics were analyzed using the 1:1 binding model.

[4] = target: T4, mouse Sortilin Fc fusion protein (mouse; human, UniProt Q6PHU5 74-754); assay: ForteBio, avid;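 also: whole IgG captured on AHQ sensors, then contacted with Sortilin Fc fusion antigen at 100 nM, followed by an off-rate phase in buffer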
T4 construct: whole entry named; also called mSort-Fc
Protocol: as §2, §3

Row | MFI [1] | MFI [2] | Kd [3] | Kd [4] | Binder
1 | 9210 | 7300 | 3.05 nM | – | S-74 (antibody, V domains shown, IgG) VH: QVQLQESGPGLVKPSQTLSLTCTVSGGSISSGTYYWSWIRQHPGKGLEWIGYIYYSGSTYYNPSLKSRVTISVDTSKNQFSLKLSSVTAADTAVYYCARGVGRYRVADYWGQGTLVTVSS VL: EIVMTQSPATLSLSPGERATLSCRASQSVSSYLAWYQQKPGQAPRLLIYDSSNRATGIPARFSGSGSGTDFTLTISSLEPEDFAVYYCQQETNMPPITFGGGTKVEIK
2 | 9300 | – | 1.79 nM | – | S-83 (antibody, V domains shown, IgG) VH: QLQLQESGPGLVKPSETLSLTCTVSGGSISSSSYYWGWIRQPPGKGLEWIGSIYYSGSTYYNPSLKSRVTISVDTSKNQFSLKLSSVTAADTAVYYCARGSPTWLRDYYMDVWGKGTTVTVSS VL: EIVLTQSPATLSVSPGERATLSCRASQSVSSNLAWYQQKPGQAPRLLIYGASTRATGIPARFSGSGSGTEFTLTISSLQSEDFAVYYCQQYNAFPPTFGGGTKVEIK
3 | 7770 | 15100 | 2.59 nM | 0.8 nM | S-58 (antibody, V domains shown, IgG) VH: QVQLQESGPGLVKPSETLSLTCAVSGYSISSGYYWGWIRQPPGKGLEWIGSIYHSGNTYYNPSLKSRVTISVDTSKNQFSLKLSSVTAADTAVYYCARGPPELGKMYFQHWGQGTLVTVSS VL: EIVLTQSPATLSVSPGERATLSCRASQSVSSNLAWYQQKPGQAPRLLIYGASTRATGIPARFSGSGSGTEFTLTISSLQSEDFAVYYCQQDRKGPLTFGGGTKVEIK
4 | 7480 | 21800 | 4.26 nM | 2.45 nM | S-61 (antibody, V domains shown, IgG) VH: QVQLQESGPGLVKPSETLSLTCAVSGYSISSGYYWGWIRQPPGKGLEWIGSIYHSGSTYYNPSLKSRVTISVDTSKNQFSLKLSSVTAADTAVYYCARGSPRFYYGSGSYLDLFDIWGQGTMVTVSS VL: EIVMTQSPATLSVSPGERATLSCRASQSVSSNLAWYQQKPGQAPRLLIYGASTRATGIPARFSGSGSGTEFTLTISSLQSEDFAVYYCQEYLNYPITFGGGTKVEIK
5 | 8580 | 1890 | 4.29 nM | 20.1 nM | S-69 (antibody, V domains shown, IgG) VH: QVQLQESGPGLVKPSQTLSLTCTVSGGSISSGGYYWSWIRQHPGKGLEWIGYIYYSGSTYYNPSLKSRVTISVDTSKNQFSLKLSSVTAADTAVYYCARDRGGTHFGADHYYYGMDVWGQGTMVTVSS VL: EIVMTQSPATLSVSPGERATLSCRASQSVSSSLAWYQQKPGQAPRLLIYGASTRATGIPARFSGSGSGTEFTLTISSLQSEDFAVYYCQQAADWPITFGGGTKVEIK
6 | 9240 | 15400 | 4.4 nM | – | S-84 (antibody, V domains shown, IgG) VH: QLQLQESGPGLVKPSETLSLTCTVSGGSISSSSYYWGWIRQPPGKGLEWIGSISYSGSTYYNPSLKSRVTISVDTSKNQFSLKLSSVTAADTAVYYCARGGTTWLVADVWGQGTMVTVSS VL: not shown
7 | 7120 | 7930 | 3.51 nM | 10.6 nM | S-78 (antibody, V domains shown, IgG) VH: QLQLQESGPGLVKPSETLSLTCTVSGGSISSSDYYWGWIRQPPGKGLEWIGSIYYSGSTYYNPSLKSRVTISVDTSKNQFSLKLSSVTAADTAVYYCARSLAMSGAYFDLWGRGTLVTVSS VL: not shown
8 | 8940 | 16600 | 2.2 nM | – | S-81 (antibody, V domains shown, IgG) VH: QLQLQESGPGLVKPSETLSLTCTVSGGSISSSSYYWGWIRQPPGKGLEWIGSIYYSGSTYYNPSLKSRVTISVDTSKNQFSLKLSSVTAADTAVYYCARERWDLGHGMDVWGQGTTVTVSS VL: not shown
9 | 7930 | – | – | 24.2 nM | S-64 (antibody, V domains shown, IgG) VH: QVQLQESGPGLVKPSETLSLTCAVSGYSISSGYYWGWIRQPPGKGLEWIGSIYHSGSTYYNPSLKSRVTISVDTSKNQFSLKLSSVTAADTAVYYCARAEHRGPRYFDLWGRGTLVTVSS VL: DIQMTQSPSSLSASVGDRVTITCRASQSINSYLNWYQQKPGKAPKLLIYAASSLQSGVPSRFSGSGSGTDFTLTISSLQPEDFATYYCQQLDSTPITFGGGTKVEIK
10 | 8070 | 17900 | – | 6.9 nM | S-65 (antibody, V domains shown, IgG) VH: QVQLQESGPGLVKPSETLSLTCAVSGYSISSGYYWGWIRQPPGKGLEWIGSIYHSGSTYYNPSLKSRVTISVDTSKNQFSLKLSSVTAADTAVYYCAREGQLPTGTFDYWGQGTLVTVSS VL: not shown
11 | 9680 | 4180 | – | 19 nM | S-76 (antibody, V domains shown, IgG) VH: QVQLQESGPGLVKPSQTLSLTCTVSGGSISSGGYYWSWIRQHPGKGLEWIGSIYYSGSTYYNPSLKSRVTISVDTSKNQFSLKLSSVTAADTAVYYCARGVGIQQQLVLGFDPWGQGTLVTVSS VL: DIQMTQSPSSLSASVGDRVTITCRASQSISSFLNWYQQKPGKAPKLLISAASSLQSGVPSRFSGSGSGTDFTLTISSLQPEDFATYYCQQSYREPITFGGGTKVEIK

The next lines start with the binder.

Row | Binder | MFI [1] | MFI [2] | Kd [3] | Kd [4]
12 | S-26 (antibody, V domains shown, IgG) VH: EVQLVESGGGLVKPGGSLRLSCAASGFTFSSYSMNWVRQAPGKGLEWVSSISSSSSYIYYADSVKGRFTISRDNAKNSLYLQMNSLRAEDTAVYYCARDRLGRGYKWNWFDPWGQGTLVTVSS VL: DIQMTQSPSSVSASVGDRVTITCRASQGIDSWLAWYQQKPGKAPKLLIYAASSLQSGVPSRFSGSGSGTDFTLTISSLQPEDFATYYCQQGNSLPPITFGGGTKVEIK | 9020 | 20900 | 2.88 nM | –
13 | S-73 (antibody, V domains shown, IgG) VH: QVQLQESGPGLVKPSQTLSLTCTVSGGSISSGTYYWSWIRQHPGKGLEWIGYIYYSGSTYYNPSLKSRVTISVDTSKNQFSLKLSSVTAADTAVYYCARGVGRYRVADYWGQGTLVTVSS VL: EIVLTQSPATLSLSPGERATLSCRASQSVSSYLAWYQQKPGQAPRLLIYDASNRATGIPARFSGSGSGTDFTLTISSLEPEDFAVYYCQQASVYPPITFGGGTKVEIK | 8070 | 7670 | 3.33 nM | 19.7 nM
14 | S-6 (antibody, V domains shown, IgG; also called S-06) VH: not shown VL: EIVMTQSPATLSVSPGERATLSCRASQSVSSNLAWYQQKPGQAPRLLIYGASTRATGIPARFSGSGSGTEFTLTISSLQSEDFAVYYCQQVANYPRTFGGGTKVEIK | 11100 | 25600 | – | –
15 | S-9 (antibody, V domains shown, IgG) VH: QVQLVQSGAEVKKPGASVKVSCKASGYTFTSYGISWVRQAPGQGLEWMGWISAYNGNTNYAQKLQGRVTMTTDTSTSTAYMELRSLRSDDTAVYYCARDPGGYGPTLYYYYGMDVWGQGTTVTVSS VL: EIVMTQSPATLSVSPGERATLSCRASQSVSSNLAWYQQKPGQAPRLLIYGASTRATGIPARFSGSGSGTEFTLTISSLQSEDFAVYYCQQYNIYPLTFGGGTKVEIK | 10300 | 22200 | 6.98 nM | 2.16 nM
16 | S-4 (antibody, V domains shown, IgG) VH: not shown VL: EIVMTQSPATLSVSPGERATLSCRASQSVSSNLAWYQQKPGQAPRLLIYGASTRATGIPARFSGSGSGTEFTLTISSLQSEDFAVYYCQQFRVLPPTFGGGTKVEIK | 9120 | 15700 | 4.5 nM | 1.55 nM
17 | S-55 (antibody, V domains shown, IgG) VH: QVQLQESGPGLVKPSETLSLTCAVSGYSISSGYYWGWIRQPPGKGLEWIGSIYHSGSTYYNPSLKSRVTISVDTSKNQFSLKLSSVTAADTAVYYCARGRPELGWDKYFQHWGQGTLVTVSS VL: DIQMTQSPSSVSASVGDRVTITCRASQGISRWLAWYQQKPGKAPKLLIYAASSLQSGVPSRFSGSGSGTDFTLTISSLQPEDFATYYCQQANALPTFGGGTKVEIK | 9480 | 21400 | 2.28 nM | 1.13 nM
18 | S-12 (antibody, V domains shown, IgG) VH: QVQLVQSGAEVKKPGASVKVSCKASGYTFTSYGISWVRQAPGQGLEWMGWISAYNGNTNYAQKLQGRVTMTTDTSTSTAYMELRSLRSDDTAVYYCARDLPKYKWGWFDPWGQGTLVTVSS VL: not shown | 9760 | 18800 | 9.35 nM | –
19 | S-16 (antibody, V domains shown, IgG) VH: QVQLVQSGAEVKKPGSSVKVSCKASGGTFSSYAISWVRQAPGQGLEWMGGIIPIFGTANYAQKFQGRVTITADESTSTAYMELSSLRSEDTAVYYCARSPYSGTRDFDLWGRGTLVTVSS VL: DIQMTQSPSSVSASVGDRVTITCRASQGISSWLAWYQQKPGKAPKLLIYAASNLQSGVPSRFSGSGSGTDFTLTISSLQPEDFATYYCQQGNSYPITFGGGTKVEIK | 6280 | – | 3.8 nM | –
20 | S-51 (antibody, V domains shown, IgG) VH: QVQLVESGGGVVQPGRSLRLSCAASGFTFSSYGMHWVRQAPGKGLEWVAVISYDGSNKYYADSVKGRFTISRDNSKNTLYLQMNSLRAEDTAVYYCAKGLEYYDSSRLYYPYYYYMDVWGKGTTVTVSS VL: EIVLTQSPATLSLSPGERATLSCRASQSVSSYLAWYQQKPGQAPRLLIYDASKRATGIPARFSGSGSGTDFTLTISSLEPEDFAVYYCQQRSNYPITFGGGTKVEIK | 12200 | 21900 | 4.12 nM | 1.21 nM
21 | S-40 (antibody, V domains shown, IgG) VH: not shown VL: EIVMTQSPATLSLSPGERATLSCRASQSVSSYLAWYQQKPGQAPRLLIYDASNRATGIPARFSGSGSGTDFTLTISSLEPEDFAVYYCQQRSALPFTFGGGTKVEIK | 7410 | 2630 | 2.43 nM | –
